Assay results taken from patent US20060193821.

Assays:
[1] = target: T1, IL-23 (human, p19/p40 heterodimer) (Homo sapiens) (UniProt Q9NPF7+P29460); experiment: cell_activity; settings: 2'-F C and U, 2'-OH A and G; TransAM STAT3, PHA blasts
[2] = target: T1, IL-23 (human, p19/p40 heterodimer) (Homo sapiens); experiment: filter; settings: 2'-F C,U; SHMCK, tRNA

T1 sequence (Q9NPF7 20-189, chain 1 of 2): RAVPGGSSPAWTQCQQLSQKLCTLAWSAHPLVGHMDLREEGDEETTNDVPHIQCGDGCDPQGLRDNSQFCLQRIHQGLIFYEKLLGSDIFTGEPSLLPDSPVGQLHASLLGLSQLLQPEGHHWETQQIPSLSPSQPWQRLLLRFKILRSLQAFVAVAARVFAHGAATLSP
T1 sequence (P29460 23-328, chain 2 of 2): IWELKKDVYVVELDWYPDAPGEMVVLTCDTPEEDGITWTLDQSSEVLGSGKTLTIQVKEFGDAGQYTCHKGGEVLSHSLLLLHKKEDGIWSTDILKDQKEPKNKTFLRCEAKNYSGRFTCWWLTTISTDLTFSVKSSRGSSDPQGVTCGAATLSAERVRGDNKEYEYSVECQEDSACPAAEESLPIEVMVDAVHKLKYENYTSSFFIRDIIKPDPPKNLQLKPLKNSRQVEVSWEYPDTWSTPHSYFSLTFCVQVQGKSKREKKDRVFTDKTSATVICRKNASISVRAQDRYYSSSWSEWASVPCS

With “AGGGAAAAGGAAUCAUACACAAGAUGUAUCAUCCGGUCGUACAAAAGCGCCACGGAACCAUUCGCUCCGCCAGANACCAACCGAGAA [ARX33-plate1-H01]” the IC50 [1] was over 5000 nM and the Kd [2] was 77.8 nM.
